Assay results taken from publication PMC6969021.

Tests used:
[1] = target: FLucNC-Atto532 (Photinus pyralis); test: AUC; sedimentation velocity, detection at 532 nm; GuHCl-denatured FLuc-Atto532 diluted to 200 nM in folding buffer with 3 µM DnaK, 1 µM DnaJ, 5 mM ATP
[2] = target: firefly luciferase (FLuc), wild type (Photinus pyralis) [luciferase: P08659]

DnaK, sequence (P0A6Y8 whole entry): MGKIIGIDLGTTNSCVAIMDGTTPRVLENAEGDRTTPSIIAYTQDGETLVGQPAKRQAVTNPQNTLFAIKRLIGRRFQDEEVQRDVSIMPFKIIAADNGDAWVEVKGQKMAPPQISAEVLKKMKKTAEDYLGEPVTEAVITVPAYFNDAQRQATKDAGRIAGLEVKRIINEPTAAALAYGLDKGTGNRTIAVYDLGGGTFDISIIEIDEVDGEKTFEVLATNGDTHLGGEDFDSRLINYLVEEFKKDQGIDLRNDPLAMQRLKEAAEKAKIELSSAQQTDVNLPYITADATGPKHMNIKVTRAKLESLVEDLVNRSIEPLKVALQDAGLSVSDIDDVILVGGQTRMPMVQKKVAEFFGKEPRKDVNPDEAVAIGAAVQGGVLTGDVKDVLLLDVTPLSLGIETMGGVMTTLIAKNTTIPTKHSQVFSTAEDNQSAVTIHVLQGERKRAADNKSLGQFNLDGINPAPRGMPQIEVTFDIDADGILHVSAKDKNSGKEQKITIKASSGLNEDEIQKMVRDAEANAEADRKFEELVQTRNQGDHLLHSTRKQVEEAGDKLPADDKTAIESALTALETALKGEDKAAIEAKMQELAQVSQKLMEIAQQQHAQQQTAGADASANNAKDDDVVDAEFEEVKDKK
DnaJ, sequence (P08622 whole entry): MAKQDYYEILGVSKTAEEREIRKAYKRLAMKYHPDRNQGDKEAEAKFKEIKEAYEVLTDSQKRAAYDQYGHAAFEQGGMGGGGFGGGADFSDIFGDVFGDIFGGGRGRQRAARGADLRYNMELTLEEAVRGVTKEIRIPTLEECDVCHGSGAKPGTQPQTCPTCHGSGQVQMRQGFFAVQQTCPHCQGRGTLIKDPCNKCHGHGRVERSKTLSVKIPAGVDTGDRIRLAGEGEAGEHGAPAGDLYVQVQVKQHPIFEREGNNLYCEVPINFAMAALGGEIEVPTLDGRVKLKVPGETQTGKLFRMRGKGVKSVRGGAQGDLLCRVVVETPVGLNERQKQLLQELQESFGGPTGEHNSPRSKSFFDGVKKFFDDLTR

stoichiometry N (DnaK per FLuc) [1]	yield of luminescence refolding of FLuc in the presence of KJE without ATP [2]	Substance
12	–	DnaK (from UniProt P0A6Y8 1-638) (natural protein)
–	40%	DnaJ (from UniProt P08622 1-376) (natural protein)
